Measurements reported in patent US20130143798A1 (Novo Nordisk, published 2013).
Numbered stars: 1 amine (or outer) side, 2 acyl side, 3 side chain; on linkers, the order of the positions; unused ones are H or OH. Square brackets hold non-standard residues; d marks the D form. Side chains are listed from the residue outwards. Ends that are not written are not given here. * marks the point of attachment. C18 diacid = O=C(O)CCCCCCCCCCCCCCCCC(=O)*; γGlu = O=C(O)[C@H](CCC(=O)[*:2])N[*:1]; AEEA = NCCOCCOCC(=O)O; Aib = CC(C)(N)C(=O)O

Target: glucagon receptor (UniProt P47871 26-477, limits assumed)
Sequence (P47871 26-477 limits assumed): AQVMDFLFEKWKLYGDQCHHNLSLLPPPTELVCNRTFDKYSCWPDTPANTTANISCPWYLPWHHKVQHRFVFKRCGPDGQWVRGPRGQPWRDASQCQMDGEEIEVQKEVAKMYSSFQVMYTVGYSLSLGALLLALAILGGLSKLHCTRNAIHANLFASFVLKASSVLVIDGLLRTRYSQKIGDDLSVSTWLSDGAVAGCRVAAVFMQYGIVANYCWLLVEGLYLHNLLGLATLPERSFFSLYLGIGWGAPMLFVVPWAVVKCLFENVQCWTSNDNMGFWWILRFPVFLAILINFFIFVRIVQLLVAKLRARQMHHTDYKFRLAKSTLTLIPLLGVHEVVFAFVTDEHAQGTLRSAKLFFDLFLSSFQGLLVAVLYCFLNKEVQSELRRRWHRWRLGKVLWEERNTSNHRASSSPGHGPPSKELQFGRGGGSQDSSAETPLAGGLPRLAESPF
Test: cell-based or functional assay

Assay (I) Glucagon [EC50] [nM] | Binder
0.003 | HSQGTFTSDYSKYLDK([AEEA-AEEA-γGlu-C18 diacid])RRAQDFVQWLLNT
0.149 | H[dS]QGTFTSDYSKYLDERRAQDFVK([AEEA-AEEA-γGlu-C18 diacid])WLLNT
0.094 | HSQGTFTSDYSKYLDSK([AEEA-AEEA-γGlu-C18 diacid])RAQDFVQWLLNT
0.02 | HSQGTFTSDYSKYLDSRRAQDFVK([AEEA-AEEA-γGlu-C18 diacid])WLLST
0.406 | HSQGTFTSDYSKYLDEQAARDFVQWLMNTK([AEEA-AEEA-γGlu-C18 diacid])-NH2 (N-terminus assumed; SMILES CSCC[C@H](NC(=O)[C@H](CC(C)C)NC(=O)[C@H](Cc1c[nH]c2ccccc12)NC(=O)[C@H](CCC(N)=O)NC(=O)[C@@H](NC(=O)[C@H](Cc1ccccc1)NC(=O)[C@H](CC(=O)O)NC(=O)[C@H](CCCNC(=N)N)NC(=O)[C@H](C)NC(=O)[C@H](C)NC(=O)[C@H](CCC(N)=O)NC(=O)[C@H](CCC(=O)O)NC(=O)[C@H](CC(=O)O)NC(=O)[C@H](CC(C)C)NC(=O)[C@H](Cc1ccc(O)cc1)NC(=O)[C@H](CCCCN)NC(=O)[C@H](CO)NC(=O)[C@H](Cc1ccc(O)cc1)NC(=O)[C@H](CC(=O)O)NC(=O)[C@H](CO)NC(=O)[C@@H](NC(=O)[C@H](Cc1ccccc1)NC(=O)[C@@H](NC(=O)CNC(=O)[C@H](CCC(N)=O)NC(=O)[C@H](CO)NC(=O)[C@@H](N)Cc1c[nH]cn1)[C@@H](C)O)[C@@H](C)O)C(C)C)C(=O)N[C@@H](CC(N)=O)C(=O)N[C@H](C(=O)N[C@@H](CCCCNC(=O)COCCOCCNC(=O)COCCOCCNC(=O)CC[C@H](NC(=O)CCCCCCCCCCCCCCCCC(=O)O)C(=O)O)C(N)=O)[C@@H](C)O) [N^α([Glu^16,Gln^17,Ala^18,Arg^20]Glucagonyl) …]
0.206 | HSQGTFTSDYSKYLDSRK([AEEA-AEEA-γGlu-C18 diacid])AQDFVQWLLNT
0.137 | H[dS]QGTFTSDYSKYLAEQRARDFVK([AEEA-AEEA-γGlu-C18 diacid])WLLNT-NH2 (N-terminus assumed; SMILES CC(C)C[C@H](NC(=O)[C@H](Cc1ccc(O)cc1)NC(=O)[C@H](CCCCN)NC(=O)[C@H](CO)NC(=O)[C@H](Cc1ccc(O)cc1)NC(=O)[C@H](CC(=O)O)NC(=O)[C@H](CO)NC(=O)[C@@H](NC(=O)[C@H](Cc1ccccc1)NC(=O)[C@@H](NC(=O)CNC(=O)[C@H](CCC(N)=O)NC(=O)[C@@H](CO)NC(=O)[C@@H](N)Cc1c[nH]cn1)[C@@H](C)O)[C@@H](C)O)C(=O)N[C@@H](C)C(=O)N[C@@H](CCC(=O)O)C(=O)N[C@@H](CCC(N)=O)C(=O)N[C@@H](CCCNC(=N)N)C(=O)N[C@@H](C)C(=O)N[C@@H](CCCNC(=N)N)C(=O)N[C@@H](CC(=O)O)C(=O)N[C@@H](Cc1ccccc1)C(=O)N[C@H](C(=O)N[C@@H](CCCCNC(=O)COCCOCCNC(=O)COCCOCCNC(=O)CC[C@H](NC(=O)CCCCCCCCCCCCCCCCC(=O)O)C(=O)O)C(=O)N[C@@H](Cc1c[nH]c2ccccc12)C(=O)N[C@@H](CC(C)C)C(=O)N[C@@H](CC(C)C)C(=O)N[C@@H](CC(N)=O)C(=O)N[C@H](C(N)=O)[C@@H](C)O)C(C)C)
0.019 | HSQGTFTSDYSKYLDSRRAQDFVQWLLNTK (C-terminal Lys (position 30): N-epsilon acylated with the substituent printed in the name) [N^α([Leu^27]Glucagonyl) …]
0.54 | H[dS]QGTFTSDYSKYLDSRRAKDFVQWLMNTK-NH2 (not fully specified)
0.135 | H[Aib]QGTFTSDYSKYLDERRAQDFVK([AEEA-AEEA-γGlu-C18 diacid])WLLNT-NH2 (N-terminus assumed; SMILES CC(C)C[C@H](NC(=O)[C@H](Cc1ccc(O)cc1)NC(=O)[C@H](CCCCN)NC(=O)[C@H](CO)NC(=O)[C@H](Cc1ccc(O)cc1)NC(=O)[C@H](CC(=O)O)NC(=O)[C@H](CO)NC(=O)[C@@H](NC(=O)[C@H](Cc1ccccc1)NC(=O)[C@@H](NC(=O)CNC(=O)[C@H](CCC(N)=O)NC(=O)C(C)(C)NC(=O)[C@@H](N)Cc1c[nH]cn1)[C@@H](C)O)[C@@H](C)O)C(=O)N[C@@H](CC(=O)O)C(=O)N[C@@H](CCC(=O)O)C(=O)N[C@@H](CCCNC(=N)N)C(=O)N[C@@H](CCCNC(=N)N)C(=O)N[C@@H](C)C(=O)N[C@@H](CCC(N)=O)C(=O)N[C@@H](CC(=O)O)C(=O)N[C@@H](Cc1ccccc1)C(=O)N[C@H](C(=O)N[C@@H](CCCCNC(=O)COCCOCCNC(=O)COCCOCCNC(=O)CC[C@H](NC(=O)CCCCCCCCCCCCCCCCC(=O)O)C(=O)O)C(=O)N[C@@H](Cc1c[nH]c2ccccc12)C(=O)N[C@@H](CC(C)C)C(=O)N[C@@H](CC(C)C)C(=O)N[C@@H](CC(N)=O)C(=O)N[C@H](C(N)=O)[C@@H](C)O)C(C)C)
0.109 | HSQGTFTSDYSRYLDSRRAQDFVK([AEEA-AEEA-γGlu-C18 diacid])WLLNT
0.192 | HSQGTFTSDYSKYLDEQRARDFVQWLMNTK([AEEA-AEEA-γGlu-C18 diacid])-NH2 (N-terminus assumed; SMILES CSCC[C@H](NC(=O)[C@H](CC(C)C)NC(=O)[C@H](Cc1c[nH]c2ccccc12)NC(=O)[C@H](CCC(N)=O)NC(=O)[C@@H](NC(=O)[C@H](Cc1ccccc1)NC(=O)[C@H](CC(=O)O)NC(=O)[C@H](CCCNC(=N)N)NC(=O)[C@H](C)NC(=O)[C@H](CCCNC(=N)N)NC(=O)[C@H](CCC(N)=O)NC(=O)[C@H](CCC(=O)O)NC(=O)[C@H](CC(=O)O)NC(=O)[C@H](CC(C)C)NC(=O)[C@H](Cc1ccc(O)cc1)NC(=O)[C@H](CCCCN)NC(=O)[C@H](CO)NC(=O)[C@H](Cc1ccc(O)cc1)NC(=O)[C@H](CC(=O)O)NC(=O)[C@H](CO)NC(=O)[C@@H](NC(=O)[C@H](Cc1ccccc1)NC(=O)[C@@H](NC(=O)CNC(=O)[C@H](CCC(N)=O)NC(=O)[C@H](CO)NC(=O)[C@@H](N)Cc1c[nH]cn1)[C@@H](C)O)[C@@H](C)O)C(C)C)C(=O)N[C@@H](CC(N)=O)C(=O)N[C@H](C(=O)N[C@@H](CCCCNC(=O)COCCOCCNC(=O)COCCOCCNC(=O)CC[C@H](NC(=O)CCCCCCCCCCCCCCCCC(=O)O)C(=O)O)C(N)=O)[C@@H](C)O) [N^α([Glu^16,Gln^17,Arg^20]Glucagonyl) …]
0.046 | HSQGTFTSDYSKYLDSRRAQDFVQWLLNK([AEEA-AEEA-γGlu-C18 diacid]) (not fully specified; printed as N^ε29-([2-[2-[2-[[(4S)-5-hydroxy-4-[(18-hydroxy-18-oxooctadecanoyl)amino]5-oxopentanoyl]amino]ethoxy]ethoxy]acetyl]amino]ethoxy]ethoxy]acetyl]])[Leu^27,Lys^29]Glucagon)
0.024 | HSQGTFTSDYSKYLDSRRAQDFVK([AEEA-AEEA-γGlu-C18 diacid])WLLTT
0.021 | HSQGTFTSDYSKYLDSRRAQEFVK([AEEA-AEEA-γGlu-C18 diacid])WLLNT
0.016 | HSQGTFTSDYSKYLDTRRAQDFVK([AEEA-AEEA-γGlu-C18 diacid])WLLST
0.043 | HSQGTFTSDYSKYLDSRRAQEFVK([AEEA-AEEA-γGlu-C18 diacid])RLLNT-NH2 (N-terminus assumed; SMILES CC(C)C[C@H](NC(=O)[C@H](Cc1ccc(O)cc1)NC(=O)[C@H](CCCCN)NC(=O)[C@H](CO)NC(=O)[C@H](Cc1ccc(O)cc1)NC(=O)[C@H](CC(=O)O)NC(=O)[C@H](CO)NC(=O)[C@@H](NC(=O)[C@H](Cc1ccccc1)NC(=O)[C@@H](NC(=O)CNC(=O)[C@H](CCC(N)=O)NC(=O)[C@H](CO)NC(=O)[C@@H](N)Cc1c[nH]cn1)[C@@H](C)O)[C@@H](C)O)C(=O)N[C@@H](CC(=O)O)C(=O)N[C@@H](CO)C(=O)N[C@@H](CCCNC(=N)N)C(=O)N[C@@H](CCCNC(=N)N)C(=O)N[C@@H](C)C(=O)N[C@@H](CCC(N)=O)C(=O)N[C@@H](CCC(=O)O)C(=O)N[C@@H](Cc1ccccc1)C(=O)N[C@H](C(=O)N[C@@H](CCCCNC(=O)COCCOCCNC(=O)COCCOCCNC(=O)CC[C@H](NC(=O)CCCCCCCCCCCCCCCCC(=O)O)C(=O)O)C(=O)N[C@@H](CCCNC(=N)N)C(=O)N[C@@H](CC(C)C)C(=O)N[C@@H](CC(C)C)C(=O)N[C@@H](CC(N)=O)C(=O)N[C@H](C(N)=O)[C@@H](C)O)C(C)C)
